Each block holds one substance with its values, some of them ahead of it.
What was measured:
[1] = biological target: PpRAD51-2, purified recombinant (P. patens)
[2] = system: PpBRCA2-NterT138 (Physcomitrium patens); experiment: BLI; conditions: text cites Fig. 7B; Kd in Fig. 7C not in text; EMSA: 10 mM Tris-HCl pH 7.5, 50 mM NaCl, 5 mM MgCl2, 2 mM ATP, 1 mM DTT, 37 C, 7 min (RAD51/DMC1 15 min), 0.01% glutaraldehyde; BLI: 25 mM Tris pH 7.5, 100 mM …
[3] = biological target: biotinylated PpBRCA2-BRC4 peptide (P. patens); experiment: BLI; biotinylated BRC peptides (0.5 μM) immobilised on streptavidin biosensors, PpRAD51-2 in solution in two-fold serial dilutions; 25°C; buffer A (25 mM Tris pH 7.5, 100 mM Na2SO4, 5 mM β-mercaptoethanol) with 0.05% Tween-20; Kd in steady-state mode
[4] = biological target: biotinylated PpBRCA2-BRC2 peptide (P. patens); experiment: as above
[5] = biological target: biotinylated PpBRCA2-BRC1 peptide (P. patens); experiment: as above
[6] = biological target: 6His-PpBRCA2-Cter (amino acids 251–391) (P. patens); experiment: BLI; 6His-PpBRCA2-Cter immobilised on Ni-NTA biosensors, PpRAD51-2 in solution (1.88–30 nM); buffer A with 0.1% Tween-20; 25°C

concentration needed for complete inhibition of PpRAD51-ssDNA filament formation (EMSA; 1 μM RAD51-2, 3 μM 100 nt ssDNA, 0–4 μM PpBRCA2-Cter) [1]: 2 µM
Substance: 6His-PpBRCA2-Cter (amino acids 251–391) (domain or fragment)

Substance: 100 nt ssDNA (BLI)
fold decrease in affinity relative to PpBRCA2-Nter (fold weaker affinity than PpBRCA2-Nter) [2]: 50

Kd [3]: 400 nM | Kd [4]: 800 nM | Kd [5]: 400 nM | Kd [6]: 4.3 nM
Substance: PpRAD51-2, purified recombinant (natural protein)

concentration needed for complete inhibition of PpRAD51-ssDNA filament formation (EMSA; 1 μM RAD51-2, 3 μM 100 nt ssDNA, 0–4 μM PpBRCA2-BRC4) [1]: > 4 µM
Substance: biotinylated PpBRCA2-BRC4 peptide
